Positions count from the first letter of the chain named. Names and notes keep the numbering of the source. Values joined by “and” are separate entries in the source; they are usually repeats but may differ in a detail not shown here. Identical values can stand only once.
B1: R35B9 Fab (enzymatic digest of the mouse IgG1 antibody) (Fab, V domains shown, not shown: a dimerising Fc or GST)
VH: EVQLQQSGPELVKPGASVKMSCKASGYIFQDYNMHWVKQSHGKSLEWIGSINPRNGWTNYNQKFKGKATLTVNKSSRSAYMEFRSLTSEDSAVYYCASSGWFTYWGQGTLVTVSA
VL: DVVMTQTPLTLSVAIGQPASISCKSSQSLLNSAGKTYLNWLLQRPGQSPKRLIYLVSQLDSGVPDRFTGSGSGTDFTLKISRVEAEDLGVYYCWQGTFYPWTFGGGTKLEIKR
notes: Made with the mouse IgG1 Fab and F(ab')2 preparation kit; also called R35B9 Fab LM042817
B2: R35B9 mouse IgG1(D265A), kappa antibody (A402/A403) (antibody)
heavy: EVQLQQSGPELVKPGASVKMSCKASGYIFQDYNMHWVKQSHGKSLEWIGSINPRNGWTNYNQKFKGKATLTVNKSSRSAYMEFRSLTSEDSAVYYCASSGWFTYWGQGTLVTVSAAKTTPPSVYPLAPGSAAQTNSMVTLGCLVKGYFPEPVTVTWNSGSLSSGVHTFPAVLESDLYTLSSSVTVPSSPRPSETVTCNVAHPASSTKVDKKIVPRDCGCKPCICTVPEVSSVFIFPPKPKDVLTITLTPKVTCVVVAISKDDPEVQFSWFVDDVEVHTAQTQPREEQFNSTFRSVSELPIMHQDWLNGKEFKCRVNSAAFPAPIEKTISKTKGRPKAPQVYTIPPPKEQMAKDKVSLTCMITDFFPEDITVEWQWNGQPAENYKNTQPIMNTNGSYFVYSKLNVQKSNWEAGNTFTCSVLHEGLHNHHTEKSLSHSPGK
light: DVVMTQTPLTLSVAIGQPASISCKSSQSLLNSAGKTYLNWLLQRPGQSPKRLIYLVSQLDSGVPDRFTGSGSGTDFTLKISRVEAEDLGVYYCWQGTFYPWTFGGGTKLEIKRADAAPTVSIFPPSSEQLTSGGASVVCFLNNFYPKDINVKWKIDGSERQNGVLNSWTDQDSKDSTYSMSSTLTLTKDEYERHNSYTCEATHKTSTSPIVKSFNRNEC
B3: 41c Fab (enzymatic digest of the mouse IgG1 antibody) (Fab, V domains shown, not shown: a dimerising Fc or GST)
VH: B1 VH with I28T, Q30T, S50Y, R54N, W57G
VL: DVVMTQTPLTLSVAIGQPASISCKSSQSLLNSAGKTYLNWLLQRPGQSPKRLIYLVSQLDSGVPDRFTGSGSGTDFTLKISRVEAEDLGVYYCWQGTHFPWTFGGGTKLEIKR
notes: Made with the mouse IgG1 Fab and F(ab')2 preparation kit; also called 41C Fab LM101416
B4: KO42d mouse monoclonal antibody (hybridoma-derived) (antibody, V domains shown)
VH: EVQLLQSGPELVKPVASVKMSCKASGYTFTDYNIHWVKQSHGKSLEWIGYINPNNGVTGYNQKFRGKATLTVNRSSNTAYMDLRSLTSEDSAVYYCTRRYGDYVHAMDCWGQGTSVTVSS
VL: DIQMTQSPSSLSASLGERVSLTCRASQDIGSRLNWLQQEPDGTIKRLIYATSSLDSGVPKRFSGSRSGSDYSLTISSLESEDFVDYYCLQYASSPYTFGGGTKLEIK
notes: Hybridoma supernatant or purified antibody from an Fn14 knockout mouse; native mouse IgG, kappa

Tests used:
[1] = biological target: T1, cynomolgus macaque Fn14-GST (cynomolgus macaque (Macaca fascicularis)); assay: SPR Biacore T200; cyno Fn14-GST captured by anti-GST, Fab analyte; 1:1 fit
T1 construct: Used from culture supernatant, captured by anti-GST; also called cyno Fn14-GST; CynoFn14
Method: (§1) In order to kinetically analyze the binding activity of anti-Fn14 mouse antibodies 41c, R35B9, and CRCBT-06-002 to recombinant human and cynomolgus macaque Fn14 proteins, the binding activity was measured by surface plasmon resonance method (SPR). Antibodies were generated as described herein. All of the following procedures were carried out using a Biacore T200 (GE Healthcare Bio-Sciences). To determine antibody affinity to human Fn14, recombinant human His-SUMO-Fn14 was immobilized on a CMS sensor chip (GE Healthcare Bio-Sciences) by amine coupling chemistry. In particular, the kinetic assay was carried out by immobilizing on the chip approximately 20-30 RU of recombinant protein, in order to achieve a low protein immobilization level. To determine antibody affinity to cynomolgus macaque Fn14, polyclonal anti-GST antibodies were immobilized on a CMS sensor chip (GE Healthcare Bio-Sciences) by amine coupling chemistry. In particular, after immobilizing approximately 1500 RU of anti-GST capture antibody onto the chip, cynomolgus macaque GST-Fn14 in culture supernatant was allowed to run for 5 minutes at a flow rate of 30 μL/min in order to achieve a low capture level of approximately 20 RU. Thereafter, antibody Fab fragments, serially diluted from a high concentration, were allowed to run at a flow rate of 30 μL/min onto the chip for 300 seconds. The dissociation time was 1800 seconds and the binding curves were measured at 25° C. Regeneration was performed with 10 mM glycine pH 1.5 for 30 seconds. The raw data were double referenced by subtraction of the signals from a reference flow cell without immobilized ligand and a buffer blank.
(§2) A sensorgram corresponding to each concentration was obtained (see FIG. 5). Analysis was carried out using a 1:1 Langmuir fit model using the analysis software attached to the apparatus, Biacore T200 Evaluation software (Biacore), thereby calculating an association rate constant ka [M-1s-1] and a dissociation rate constant kd [s-1] for the recombinant Fn14 proteins. […] Cross-reactivity of anti-Fn14 mouse antibodies to recombinant mouse GST-Fn14 protein was measured as described above.

[2] = biological target: T2, His-SUMO-huFn14 (soluble human Fn14 aa 28-75 with N-terminal 6xHis-SUMO tag) (human); assay: SPR Biacore T200; His-SUMO-huFn14 amine-coupled, Fab analyte; average of two runs
T2 construct: also called His-SUMO-Fn14; His-SUMO-hFn14
Method: (§3) In order to kinetically analyze the binding activity of anti-Fn14 mouse antibodies 41c, R35B9, and CRCBT-06-002 to recombinant human and cynomolgus macaque Fn14 proteins, the binding activity was measured by surface plasmon resonance method (SPR). Antibodies were generated as described herein. All of the following procedures were carried out using a Biacore T200 (GE Healthcare Bio-Sciences). To determine antibody affinity to human Fn14, recombinant human His-SUMO-Fn14 was immobilized on a CMS sensor chip (GE Healthcare Bio-Sciences) by amine coupling chemistry. In particular, the kinetic assay was carried out by immobilizing on the chip approximately 20-30 RU of recombinant protein, in order to achieve a low protein immobilization level. To determine antibody affinity to cynomolgus macaque Fn14, polyclonal anti-GST antibodies were immobilized on a CMS sensor chip (GE Healthcare Bio-Sciences) by amine coupling chemistry. […] The dissociation time was 1800 seconds and the binding curves were measured at 25° C. […]
(§4) A sensorgram corresponding to each concentration was obtained (see FIG. 5). […] Cross-reactivity of anti-Fn14 mouse antibodies to recombinant mouse GST-Fn14 protein was measured as described above.

[3] = biological target: T1, cynomolgus macaque Fn14-GST; assay: SPR Biacore T200; cyno Fn14-GST captured by anti-GST, Fab analyte; average of two runs
Method: as §3, §4

mouse Fn14-GST = biological target: T3, mouse Fn14-GST (mouse); assay: SPR (Biacore T200); mouse Fn14-GST captured by immobilized anti-GST antibody, analyte at 10 nM
T3 construct: also called mouse GST-Fn14
Method: as §3, §4

[4] = biological target: T2, His-SUMO-huFn14 (soluble human Fn14 aa …); assay: SPR Biacore T200; His-SUMO-huFn14 amine-coupled, Fab analyte; 1:1 fit
Method: as §1, §2

[5] = biological target: T4, human Fn14 Subdomain 2 peptide (AA51-70), biotinylated (human, added C-terminal Lys carries Ahx-biotin; C-terminal amide); assay: biolayer interferometry (ForteBio Octet); biotinylated peptide on streptavidin biosensor, response at 120 s of association
T4 peptide: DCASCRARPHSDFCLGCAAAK
Method: (§5) A ForteBio Octet Qke instrument (ForteBio) was used to measure the ability of purified antibodies to bind Fn14 peptides. The assays were performed at 30° C. in 96-well half area plates (Grenier, cat# 675076), with agitation set to 1000 rpm, in kinetic buffer (provided in the assay kit) to minimize nonspecific interactions. Biosensor tips were equilibrated in kinetic buffer for 600 s prior to use. Soluble biotinylated peptides (20 μg/ml, Subdomain 1 (AA30-50): […]-[K-Ahx-biotin]-amide (SEQ ID NO: 182) and Subdomain 2 (AA51-70): […]-[K-Ahx-biotin]-amide (SEQ ID NO: 183) synthesized by 21′ Century Biochemicals) in kinetic buffer were immobilized on streptavidin-coated biosensors (ForteBio, cat# 18-5020) for 300 seconds. […] Purified antibodies (20 μg/m1) were allowed to bind the immobilized peptides. Association was measured for 300 seconds, using the high sensitivity kinetics setting. To characterize the binding properties of the antibody candidates, the response (nm) at t =120 seconds from the start of the association step was recorded. All values were compared to a control sample (isotype antibody).

[6] = biological target: T5, human Fn14 (full length) on cells (human, UniProt Q9NP84 28-129); assay: cell-based or functional assay
T5 sequence: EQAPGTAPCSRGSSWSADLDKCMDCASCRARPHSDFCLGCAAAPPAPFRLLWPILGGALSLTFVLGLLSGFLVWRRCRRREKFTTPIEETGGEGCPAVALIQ

[7] = biological target: T6, human Fn14 Subdomain 1 peptide (AA30-50), biotinylated (human, added C-terminal Lys carries Ahx-biotin; C-terminal amide); assay: biolayer interferometry (ForteBio Octet); biotinylated peptide on streptavidin biosensor, antibody in solution, response at 120 s of association
T6 peptide: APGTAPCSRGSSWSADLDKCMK
Method: as §5

[8] = biological target: T5, human Fn14 (full length) on cells; assay: flow cytometry on HK2 cells (endogenous human Fn14), purified antibody 1 µg/mL, detected with anti-mouse IgG PE
Method: (§6) Primary antibodies were used at a concentration of 1 μg/mL and binding was detected using anti-mouse IgG PE.
(§7) Specifically, the binding activity of hybridoma culture supernatants or purified antibodies to Fn14-expressing cells was evaluated by flow cytometry (FCM). The cell lines evaluated by FCM were Fn14-transfected human embryonic kidney 293F cells (ThermoFisher, cat# R79007) and two cell lines endogenously expressing Fn14, human kidney-derived HK2 cells (ATCC, cat# CRL-2190) and rat kidney-derived NRK-52E cells (Japanese Collection of Research Bioresources Cell Bank (JCRB), cat# IF050480). For FCM analysis, Fn14-expressing cells were harvested using 0.25% trypsin-EDTA (Nacalai Tesque), washed with PBS, and resuspended in SM (Staining Medium: PBS containing 2% FBS, 1 mM EDTA, 0.05% sodium azide). Cells were then seeded in a 96-well plate at 1 ×10⁵ cells per well. Hybridoma supernatant or purified antibody (1 μg/mL final concentration) was added and the cells were incubated at 4° C. for 60 minutes. Cells were then washed with SM, resuspended in goat F(ab′)2 anti-mouse IgG-PE (Southern Biotech Inc.), diluted 1:500 in SM and incubated at 4° C. for 60 minutes. Cells were washed with SM and finally resuspended in 50 μL of SM. Fluorescence intensity was measured by FCM (BD Biosciences, FACS CantoII) and the data were analyzed using FlowJo software (Tomy Digital Biology Co., Ltd.).

[9] = biological target: T7, rat Fn14, endogenous on NRK-52E cells (rat, UniProt Q9CR75 28-129 (mouse entry)); assay: flow cytometry on NRK-52E cells (endogenous rat Fn14), purified antibody 1 µg/mL, detected with anti-mouse IgG PE
T7 construct: Endogenous protein of rat kidney cells; also called NRK52E-A15/Luc cells
Method: as §6, §7

[10] = biological target: T8, mouse Fn14 (full length) on transfected 293F cells (mouse, UniProt Q9CR75 28-129); assay: flow cytometry, hybridoma supernatant on 293F cells transfected with mouse Fn14, detected with anti-mouse IgG PE
T8 sequence: T5 sequence with A7S, R11S, R29P, P47H, T62V, F63L, G66A, L68V, G70S, A97G
Method: FIG. 1 depicts binding of anti-Fn14 hybridoma supernatants to human and mouse Fn14 transfected cells. […] Hybridoma supernatant binding was detected using anti-mouse IgG PE.
as §7, with “Cells were washed with SM and finally resuspended in 50 μL of SM.” left out

T2 sequence (chain, as listed by the source limits assumed): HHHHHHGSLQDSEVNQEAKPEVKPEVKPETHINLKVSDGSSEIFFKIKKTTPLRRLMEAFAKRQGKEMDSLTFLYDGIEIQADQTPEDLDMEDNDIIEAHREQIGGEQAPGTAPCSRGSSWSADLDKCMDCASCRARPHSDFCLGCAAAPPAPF
T1 sequence (chain, as listed by the source): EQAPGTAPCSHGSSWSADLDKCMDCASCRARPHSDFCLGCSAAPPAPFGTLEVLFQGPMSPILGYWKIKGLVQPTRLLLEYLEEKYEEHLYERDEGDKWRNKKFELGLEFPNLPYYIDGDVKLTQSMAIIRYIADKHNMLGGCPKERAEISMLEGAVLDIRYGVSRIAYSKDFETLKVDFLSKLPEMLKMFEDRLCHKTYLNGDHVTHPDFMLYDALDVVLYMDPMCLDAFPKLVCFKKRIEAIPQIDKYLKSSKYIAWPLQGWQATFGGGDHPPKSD

| Binder | Kd [1] | koff [1] | kon [1] | Kd [2] [nM] | Kd [3] [nM] | binding result (mouse Fn14-GST) | Kd [4] | koff [4] | kon [4] | binding result [5] | ICAM-1 MFI on HRMC, 250 ng/mL rhTWEAK, mAb 0.1 µg/mL [6] [MFI] | binding result [7] | binding result [8] | binding result [9] | binding result [10] |
| --- | --- | --- | --- | --- | --- | --- | --- | --- | --- | --- | --- | --- | --- | --- | --- |
| B1 | 0.235 nM and 0.222 nM | 0.000342 s⁻¹ and 0.00038 s⁻¹ | 1.46e+06 M⁻¹ s⁻¹ and 1.71e+06 M⁻¹ s⁻¹ | 0.208 | 0.229 | binds | 0.205 nM and 0.21 nM | 0.00063 s⁻¹ and 0.000427 s⁻¹ | 3.07e+06 M⁻¹ s⁻¹ and 2.03e+06 M⁻¹ s⁻¹ | – | – | – | – | – | – |
| B2 | – | – | – | – | – | – | – | – | – | no binding (tested: 20 µg/mL) | 5830 | binds | – | – | – |
| B3 | 3.48 nM and 3.28 nM | 0.00153 s⁻¹ and 0.00223 s⁻¹ | 441000 M⁻¹ s⁻¹ and 678000 M⁻¹ s⁻¹ | 1.98 | 3.38 | binds | 2.15 nM and 1.81 nM | 0.00242 s⁻¹ and 0.00266 s⁻¹ | 1.13e+06 M⁻¹ s⁻¹ and 1.47e+06 M⁻¹ s⁻¹ | – | – | – | – | – | – |
| B4 | – | – | – | – | – | – | – | – | – | – | – | – | binds | binds | binds |

Source: patent US20220289857A1 (Kyowa Kirin, published 2022)
